Consider 167 variants from the RNAGym collection of RNA variant scans (doi:10.7554/elife.80360).

B1: HDV Ribozyme (parent)
chain: GGCCGGCAUGGUCCCAGCCUCCUCGCUGGCGCCGGCUGGGCAACAUUCCGAGGGGACCGUCCCCUCGGUAAUGGCGAAUGGGACCCA

This data set covers variants of B1. The data set can be described thus: self-cleavage, relative activity (ratio to wild type); higher = more cleavage; co-transcriptional.
On to C14A A43C, for which the self-cleavage stood at 0.0396.
As for C14A A43G, the self-cleavage stood at 0.
In the case of C14A A43U it was 0.145; in that of C14A C57G, 0.72; in that of C14A C57U, 1.23.
In the case of C14G C15A it was 0.312.
In the case of C14G C15U it was 0.111.
On to C14G C15G, for which the self-cleavage was found to be 0.
In the case of C14A C62U it was 0.623.
Consider C14A C62G, for which the self-cleavage stood at 0.582.
In the case of C14A C62A it was 1.06; in that of C14A U60A, 0.499; in that of C14A C85U, 0.724.
In the case of C14A C85G it was 0.906.
In the case of C14G C36A it was 0.192; in that of C13U U69A, 0.8; in that of C13U U69G, 0.7.
For C14A G29U, the self-cleavage amounted to 0.0966.
Consider C14G A71C, for which the self-cleavage was 0.208.
In the case of C14G A71U it was 0.529; in that of C14G A71G, 0.712.
In the case of C14A G28A it was 0.141; in that of C14A G28U, 0.0733; in that of C14A C24U, 0.0361.
In the case of C14G C44G it was 0.196; in that of C13U U79A, 0.256; in that of C14A A51U, 0.779.
Turning to C14A A51G, the self-cleavage was found to be 0.755.
In the case of C14A G52A it was 0.567; in that of C14A G52U, 1.03; in that of C14A C33U, 0.587.
As for C14A C33G, the self-cleavage stood at 0.213.
In the case of C14A C33A it was 0.0959; in that of C14A C26A, 0.966.
In the case of C14A C26G it was 0.831.
C14A C19U: the self-cleavage was 0.182.
Take C14A C19G: the self-cleavage is 0.
In the case of C13U U72C it was 0.252.
Take C13U U72G: the self-cleavage was found to be 0.266.
In the case of C13U U72A it was 0.128; in that of C14A U79G, 0.575.
Turning to C14A U79C, the self-cleavage was 0.173.
In the case of C14A U79A it was 0.369; in that of C14A G25A, 0.141.
Turning to C14G C48G, the self-cleavage came to 0.332.
For C14G A16G, the self-cleavage was found to be 0.554.
In the case of C14G C19G it was 0.0449.
Take C14G C19A: the self-cleavage was 0.
In the case of C14G C19U it was 0.0852; in that of C14A C48U, 0.791.
In the case of C14G C18G it was 0; in that of C14A G73U, 0.13; in that of C14A G73A, 0.383.
Turning to C14A A70U, the self-cleavage was 0.344.
For the variant C14A A70G, the self-cleavage is 0.665.
With C14A G59C, the self-cleavage came to 0.739.
For the variant C14A G59U, the self-cleavage was 1.05.
For the variant C14A U47A, the self-cleavage is 0.639.
In the case of C14A G68U it was 0.462; in that of C14A G68C, 0.388; in that of C14G A77U, 0.
As to C14G A77G, the self-cleavage worked out at 0.415.
C14G A77C: the self-cleavage came out at 0.
For the variant C14A A87G, the self-cleavage was 0.659.
In the case of C14A C41U it was 0.539; in that of C14G A83G, 0.268.
In the case of C14G A83C it was 0; in that of C14G A45C, 0.434.
In the case of C14G A45G it was 0.0875.
As for C14A C22U, the self-cleavage came out at 0.181.
On to C14A A16C, for which the self-cleavage is 0.755.
In the case of C14A it was 0.761; in that of C14G, 0.724; in that of C14A G54C, 0.536.
For C14G A78G, the self-cleavage turned out to be 0.317.
In the case of C14G A78C it was 0.108.
Regarding C14A A42G, the self-cleavage stood at 0.277.
In the case of C14A A42C it was 0.0369; in that of C14A U20G, 0; in that of C14G C41U, 0.462.
Regarding C14G C41G, the self-cleavage came to 0.525.
As to C14G A56C, the self-cleavage was 0.646.
In the case of C14A C18U it was 0; in that of C14A C18G, 0; in that of C14A G34U, 0.101.
In the case of C14G C30A it was 0.0396.
Turning to C14A C86A, the self-cleavage came to 0.886.
On to C14A C75A, for which the self-cleavage is 0.208.
In the case of C14A C75G it was 0.256; in that of C14G A87C, 0.793.
In the case of C14G A87U it was 0.895; in that of C14A G76A, 0.718.
Turning to C14A G76C, the self-cleavage worked out at 0.969.
Turning to C14A C21A, the self-cleavage is 0.0652.
In the case of C14A C21G it was 0.141; in that of C14G C21A, 0.0504; in that of C14G C21U, 0.113.
In the case of C13U U47C it was 0.489; in that of C13U U47G, 0.95; in that of C14A C36G, 0.107.
Turning to C14A C15A, the self-cleavage was 0.582.
Take C14A C15G: the self-cleavage came to 0.138.
As to C14A C32A, the self-cleavage was determined as 0.148.
For C14A C32U, the self-cleavage amounted to 0.458.
Regarding C14A C64G, the self-cleavage is 0.892.
As for C14G A51C, the self-cleavage is 0.712.
As to C14A G55U, the self-cleavage was 0.73.
In the case of C14A G55C it was 0.767; in that of C14G A43C, 0.0504.
In the case of C14G A43U it was 0.138; in that of C14G C33G, 0; in that of C14G C33U, 0.32.
In the case of C14A A77G it was 0.755; in that of C14G A70G, 0.831; in that of C14G A70C, 0.185.
Take C14G A70U: the self-cleavage stood at 0.529.
As to C14A U37A, the self-cleavage is 0.0405.
In the case of C14A U37G it was 0.104.
C14A U46C: the self-cleavage was determined as 0.237.
For C14A U46A, the self-cleavage amounted to 0.199.
As for C14A U27C, the self-cleavage stood at 0.554.
In the case of C14A G35C, the self-cleavage turned out to be 0.0536.
For C14A G35A, the self-cleavage was 0.0426.
For the variant C14A G35U, the self-cleavage is 0.232.
With C14A A56C, the self-cleavage worked out at 0.539.
In the case of C14A A56G it was 0.57; in that of C14A A45U, 0.467.
For C13U U60G, the self-cleavage is 0.831.
For C13U U60C, the self-cleavage is 0.831.
On to C14A G82A, for which the self-cleavage is 0.415.
In the case of C14A C49U it was 0.7; in that of C14A C49G, 0.101; in that of C14A U65G, 0.688.
In the case of C14A C61U it was 0.656; in that of C14A G17A, 0.
Take C14A U23G: the self-cleavage stood at 0.222.
In the case of C14A A71U it was 0.852; in that of C14A A71G, 0.499; in that of C14A C84G, 0.623.
In the case of C14A U69G it was 0.665; in that of C14A G38U, 0.182.
In the case of C14A G38A it was 0.
C14A G38C: the self-cleavage stood at 0.141.
In the case of C14A G39U, the self-cleavage turned out to be 0.222.
In the case of C14A G39A it was 0.177.
In the case of C14A G67A it was 0.435.
In the case of C14A G67U it was 0.532; in that of C14A C58U, 0.705.
Turning to C14A C44G, the self-cleavage is 0.346.
In the case of C14A C44U it was 0.166.
In the case of C14A A78C, the self-cleavage was determined as 0.158.
For the variant C14A G50U, the self-cleavage stood at 0.467.
In the case of C14A U72A it was 0.332.
In the case of C14A U72G it was 0.151; in that of C14A G80U, 0.273.
In the case of C14A G80A it was 0.565; in that of C14A A83U, 0.499.
Consider C14A A83C, for which the self-cleavage turned out to be 0.0755.
Consider C14A G40A, for which the self-cleavage came to 0.706.
In the case of C14A C63U it was 0.731; in that of C14A C63A, 0.755; in that of C13U U46C, 0.138.
Consider C14G C49A, for which the self-cleavage worked out at 0.35.
In the case of C14G C24A it was 0.378; in that of C14A G81U, 1.15.
For the variant C14A G81A, the self-cleavage amounted to 0.911.
In the case of C14A G81C it was 1.22.
